Square brackets hold non-standard residues; d marks the D form. Ends that are not written are not given here. Cit = NC(=O)NCCC[C@H](N)C(=O)O
Target: T1, recombinant MHC class II protein of the HLA DRB1 0401 genotype (human)
T1 construct: construct not described; also called HLA-DR0401
Assay: in vitro binding assay

Binder	binding result
[Cit]YMGKGVSKAVEHIN [citrullinated a-enolase peptide ref no 297]	binds
QEFMILPVGAANF[Cit]E [citrullinated a-enolase peptide ref no 301]	binds
MSILKIHA[Cit]EIFDS[Cit] [citrullinated a-enolase peptide ref no 287]	binds
Y[Cit]HIADLAGNSEVIL [citrullinated a-enolase peptide ref no 300]	binds
K[Cit]IAKAVNEKSCNCL (cysteine pairing not given here) [citrullinated a-enolase peptide ref no 313]	binds
F[Cit]AAVPSGASTGIYE [citrullinated a-enolase peptide ref no 292]	binds
LPVGAANF[Cit]EAM[Cit]IG [citrullinated a-enolase peptide ref no 302]	binds
VIGMDVAASEFF[Cit]SG [citrullinated a-enolase peptide ref no 305]	binds
KAKFAG[Cit]NF[Cit]NPLAK [citrullinated a-enolase peptide ref no 324]	binds
IFDS[Cit]GNPTVEVDLF [citrullinated a-enolase peptide ref no 289]	binds

Results, then the binder that gave them:

binding result	Binder
no binding	LPVGAANFREAMRIG [corresponding non-citrullinated peptide of a-enolase peptide 302]
no binding	YRHIADLAGNSEVIL [corresponding non-citrullinated peptide of a-enolase peptide 300]
no binding	FRAAVPSGASTGIYE [corresponding non-citrullinated peptide of a-enolase peptide 292]
no binding	KAKFAGRNFRNPLAK [corresponding non-citrullinated peptide of a-enolase peptide 324]

Target: T2, recombinant MHC class II protein of the HLA DRB1 0101 genotype (human)
T2 construct: construct not described
Assay: in vitro binding assay

binding result	Binder
no binding	[Cit]YMGKGVSKAVEHIN [citrullinated a-enolase peptide ref no 297]
no binding	VIGMDVAASEFFRSG [a-enolase peptide ref no 49]
no binding	QEFMILPVGAANF[Cit]E [citrullinated a-enolase peptide ref no 301]
binds	MSILKIHA[Cit]EIFDS[Cit] [citrullinated a-enolase peptide ref no 287]
no binding	Y[Cit]HIADLAGNSEVIL [citrullinated a-enolase peptide ref no 300]
binds	K[Cit]IAKAVNEKSCNCL (cysteine pairing not given here) [citrullinated a-enolase peptide ref no 313]
binds	F[Cit]AAVPSGASTGIYE [citrullinated a-enolase peptide ref no 292]
no binding	LPVGAANF[Cit]EAM[Cit]IG [citrullinated a-enolase peptide ref no 302]
no binding	VIGMDVAASEFF[Cit]SG [citrullinated a-enolase peptide ref no 305]
binds	QEFMILPVGAANFRE [a-enolase peptide ref no 34]
no binding	KAKFAG[Cit]NF[Cit]NPLAK [citrullinated a-enolase peptide ref no 324]
no binding	IFDS[Cit]GNPTVEVDLF [citrullinated a-enolase peptide ref no 289]

Target: T3, recombinant MHC class II protein of the HLA DRB1 1001 genotype (human)
T3 construct: construct not described
Assay: in vitro binding assay

binding result	Binder
no binding	[Cit]YMGKGVSKAVEHIN [citrullinated a-enolase peptide ref no 297]
no binding	VIGMDVAASEFFRSG [a-enolase peptide ref no 49]
no binding	QEFMILPVGAANF[Cit]E [citrullinated a-enolase peptide ref no 301]
binds	MSILKIHA[Cit]EIFDS[Cit] [citrullinated a-enolase peptide ref no 287]
no binding	Y[Cit]HIADLAGNSEVIL [citrullinated a-enolase peptide ref no 300]
no binding	K[Cit]IAKAVNEKSCNCL (cysteine pairing not given here) [citrullinated a-enolase peptide ref no 313]
no binding	F[Cit]AAVPSGASTGIYE [citrullinated a-enolase peptide ref no 292]
no binding	LPVGAANF[Cit]EAM[Cit]IG [citrullinated a-enolase peptide ref no 302]
no binding	VIGMDVAASEFF[Cit]SG [citrullinated a-enolase peptide ref no 305]
no binding	QEFMILPVGAANFRE [a-enolase peptide ref no 34]
no binding	KAKFAG[Cit]NF[Cit]NPLAK [citrullinated a-enolase peptide ref no 324]
no binding	IFDS[Cit]GNPTVEVDLF [citrullinated a-enolase peptide ref no 289]

Target: T4, recombinant MHC class II protein of the HLA DRB1 0404 genotype (human)
T4 construct: construct not described
Assay: in vitro binding assay

binding result	Binder
no binding	[Cit]YMGKGVSKAVEHIN [citrullinated a-enolase peptide ref no 297]
binds	VIGMDVAASEFFRSG [a-enolase peptide ref no 49]
binds	QEFMILPVGAANF[Cit]E [citrullinated a-enolase peptide ref no 301]
binds	MSILKIHA[Cit]EIFDS[Cit] [citrullinated a-enolase peptide ref no 287]
no binding	Y[Cit]HIADLAGNSEVIL [citrullinated a-enolase peptide ref no 300]
binds	K[Cit]IAKAVNEKSCNCL (cysteine pairing not given here) [citrullinated a-enolase peptide ref no 313]
binds	F[Cit]AAVPSGASTGIYE [citrullinated a-enolase peptide ref no 292]
binds	LPVGAANF[Cit]EAM[Cit]IG [citrullinated a-enolase peptide ref no 302]
no binding	VIGMDVAASEFF[Cit]SG [citrullinated a-enolase peptide ref no 305]
binds	QEFMILPVGAANFRE [a-enolase peptide ref no 34]
binds	KAKFAG[Cit]NF[Cit]NPLAK [citrullinated a-enolase peptide ref no 324]
no binding	IFDS[Cit]GNPTVEVDLF [citrullinated a-enolase peptide ref no 289]

Target: T5, recombinant MHC class II protein of the HLA DRB1 0405 genotype (human)
T5 construct: construct not described
Assay: in vitro binding assay

binding result	Binder
binds	[Cit]YMGKGVSKAVEHIN [citrullinated a-enolase peptide ref no 297]
binds	VIGMDVAASEFFRSG [a-enolase peptide ref no 49]
binds	QEFMILPVGAANF[Cit]E [citrullinated a-enolase peptide ref no 301]
binds	MSILKIHA[Cit]EIFDS[Cit] [citrullinated a-enolase peptide ref no 287]
binds	Y[Cit]HIADLAGNSEVIL [citrullinated a-enolase peptide ref no 300]
binds	K[Cit]IAKAVNEKSCNCL (cysteine pairing not given here) [citrullinated a-enolase peptide ref no 313]
binds	F[Cit]AAVPSGASTGIYE [citrullinated a-enolase peptide ref no 292]
binds	LPVGAANF[Cit]EAM[Cit]IG [citrullinated a-enolase peptide ref no 302]
binds	VIGMDVAASEFF[Cit]SG [citrullinated a-enolase peptide ref no 305]
binds	QEFMILPVGAANFRE [a-enolase peptide ref no 34]
binds	KAKFAG[Cit]NF[Cit]NPLAK [citrullinated a-enolase peptide ref no 324]
binds	IFDS[Cit]GNPTVEVDLF [citrullinated a-enolase peptide ref no 289]

Target: T6, recombinant MHC class II protein of the HLA DRB1 0408 genotype (human)
T6 construct: construct not described
Assay: in vitro binding assay

binding result	Binder
no binding	[Cit]YMGKGVSKAVEHIN [citrullinated a-enolase peptide ref no 297]
binds	VIGMDVAASEFFRSG [a-enolase peptide ref no 49]
no binding	QEFMILPVGAANF[Cit]E [citrullinated a-enolase peptide ref no 301]
no binding	MSILKIHA[Cit]EIFDS[Cit] [citrullinated a-enolase peptide ref no 287]
no binding	Y[Cit]HIADLAGNSEVIL [citrullinated a-enolase peptide ref no 300]
no binding	K[Cit]IAKAVNEKSCNCL (cysteine pairing not given here) [citrullinated a-enolase peptide ref no 313]
no binding	F[Cit]AAVPSGASTGIYE [citrullinated a-enolase peptide ref no 292]
no binding	LPVGAANF[Cit]EAM[Cit]IG [citrullinated a-enolase peptide ref no 302]
no binding	VIGMDVAASEFF[Cit]SG [citrullinated a-enolase peptide ref no 305]
no binding	QEFMILPVGAANFRE [a-enolase peptide ref no 34]
no binding	KAKFAG[Cit]NF[Cit]NPLAK [citrullinated a-enolase peptide ref no 324]
no binding	IFDS[Cit]GNPTVEVDLF [citrullinated a-enolase peptide ref no 289]

Target: T2, recombinant MHC class II protein of the …
Assay: in vitro binding assay
Remark: another data set of the same source

Binder	binding result
Y[Cit][Cit]MFGGPGTAS[Cit]PS [citrullinated vimentin peptide ref no 95]	binds
XEYQDLLNVKMALDI (citrulline (Xaa) at 1) [citrullinated vimentin peptide ref no 156]	binds
LLAELEQLKGQGKSR [vimentin peptide ref no 27]	binds
ELRRQVDQLTNDKAR [vimentin peptide ref no 32]	binds
REYQDLLNVKMALDI [vimentin peptide ref no 77]	binds
DVRQQYESVAAKNLQ [vimentin peptide ref no 55]	binds
MALDIEIATYRKLLE [vimentin peptide ref no 79]	binds
STEYRRQVQSLTCEV [vimentin peptide ref no 64]	binds
F[Cit]QDVDNASLA[Cit]LDL [citrullinated vimentin peptide ref no 132]	binds
LLAELEQLKGQGKS[Cit] [citrullinated vimentin peptide ref no 117]	binds
FRQDVDNASLARLDL [vimentin peptide ref no 42]	binds
YATRSSAVRLRSSVP [vimentin peptide ref no 13]	binds
VTTST[Cit]TYSLGSAL[Cit] [citrullinated vimentin peptide ref no 99]	binds

Now from value to binder:

binding result	Binder
no binding	MST[Cit]SVSSSSY[Cit][Cit]MF [citrullinated vimentin peptide ref no 93]
no binding	NDKARVEVERDNLAE [vimentin peptide ref no 34]
no binding	GVRLLQDSVDFSLAD [vimentin peptide ref no 16]

Target: T4, recombinant MHC class II protein of the …
Assay: in vitro binding assay
Remark: another data set of the same source

Binder	binding result
SAVRLRSSVPGVRLL [vimentin peptide ref no 14]	binds
NTLQSFRQDVDNASL [vimentin peptide ref no 41]	binds
LLAELEQLKGQGKSR [vimentin peptide ref no 27]	no binding
ELRRQVDQLTNDKAR [vimentin peptide ref no 32]	binds
ARLDLERKVESLQEE [vimentin peptide ref no 44]	binds
MALDIEIATYRKLLE [vimentin peptide ref no 79]	binds
LLAELEQLKGQGKS[Cit] [citrullinated vimentin peptide ref no 117]	no binding
FRQDVDNASLARLDL [vimentin peptide ref no 42]	no binding
GQVINETSQHHDDLE [vimentin peptide ref no 92]	binds

The next lines start with the values.

binding result	Binder
binds	MST[Cit]SVSSSSY[Cit][Cit]MF [citrullinated vimentin peptide ref no 93]
no binding	XKLLEGEESXISLPL (citrulline (Xaa) at 1, 10) [citrullinated vimentin peptide ref no 159]

Target: T1, recombinant MHC class II protein of the …
Assay: in vitro binding assay
Remark: another data set of the same source

Binder	binding result
Y[Cit][Cit]MFGGPGTAS[Cit]PS [citrullinated vimentin peptide ref no 95]	binds
YKSKFADLSEAANRN [vimentin peptide ref no 59]	binds
NTLQSFRQDVDNASL [vimentin peptide ref no 41]	binds
DVRQQYESVAAKNLQ [vimentin peptide ref no 55]	binds
MALDIEIATYRKLLE [vimentin peptide ref no 79]	no binding
STEYRRQVQSLTCEV [vimentin peptide ref no 64]	binds
FRQDVDNASLARLDL [vimentin peptide ref no 42]	binds
YATRSSAVRLRSSVP [vimentin peptide ref no 13]	no binding
VTTST[Cit]TYSLGSAL[Cit] [citrullinated vimentin peptide ref no 99]	binds

Further lines, results first:

binding result	Binder
binds	MST[Cit]SVSSSSY[Cit][Cit]MF [citrullinated vimentin peptide ref no 93]
binds	SS[Cit]SYVTTST[Cit]TYSL [citrullinated vimentin peptide ref no 98]
binds	FAVEAANYQDTIGRL [vimentin peptide ref no 71]
binds	NDKARVEVERDNLAE [vimentin peptide ref no 34]
binds	GVRLLQDSVDFSLAD [vimentin peptide ref no 16]
binds	FKNTRTNEKVELQEL [vimentin peptide ref no 20]
binds	XKLLEGEESXISLPL (citrulline (Xaa) at 1, 10) [citrullinated vimentin peptide ref no 159]
binds	FAVEAANYQDTIG[Cit]L [citrullinated vimentin peptide ref no 150]
binds	STEY[Cit][Cit]QVQSLTCEV [citrullinated vimentin peptide ref no 145]

Target: T5, recombinant MHC class II protein of the …
Assay: in vitro binding assay
Remark: another data set of the same source

Binder	binding result
NTLQSFRQDVDNASL [vimentin peptide ref no 41]	binds
REYQDLLNVKMALDI [vimentin peptide ref no 77]	binds
STEYRRQVQSLTCEV [vimentin peptide ref no 64]	binds
LLAELEQLKGQGKS[Cit] [citrullinated vimentin peptide ref no 117]	no binding

Next, values leading:

binding result	Binder
binds	SS[Cit]SYVTTST[Cit]TYSL [citrullinated vimentin peptide ref no 98]
no binding	NDKARVEVERDNLAE [vimentin peptide ref no 34]

Source: US20200407424A1 (FRAUNHOFER GESELLSCHAFT ZUR F RDERUNG DER ANGEWANDTEN …, published 2020)
